# Experimental data: patent US20110091993A1 (SEKISUI MEDICAL, published 2011)
# Experiments:
# [1] = target: T1, purified rabbit soluble LR11 (rabbit, UniProt Q95209 82-2136, limits assumed); experiment: sandwich ELISA, immobilized mouse IgG, liquid-phase biotinylated M3
# T1 construct: also called purified rabbit LR11; soluble LR11 in rabbit serum
# [2] = target: T2, purified human soluble LR11 (human, UniProt Q92673 82-2137, limits assumed); experiment: as above
# T2 construct: Natural shed soluble form from serum (Lot. 061208); Also used for native soluble LR11 measured directly in human serum and cerebrospinal fluid; also called purified human LR11; soluble LR11 in human serum
# T2 sequence (Q92673 82-2137 limits assumed): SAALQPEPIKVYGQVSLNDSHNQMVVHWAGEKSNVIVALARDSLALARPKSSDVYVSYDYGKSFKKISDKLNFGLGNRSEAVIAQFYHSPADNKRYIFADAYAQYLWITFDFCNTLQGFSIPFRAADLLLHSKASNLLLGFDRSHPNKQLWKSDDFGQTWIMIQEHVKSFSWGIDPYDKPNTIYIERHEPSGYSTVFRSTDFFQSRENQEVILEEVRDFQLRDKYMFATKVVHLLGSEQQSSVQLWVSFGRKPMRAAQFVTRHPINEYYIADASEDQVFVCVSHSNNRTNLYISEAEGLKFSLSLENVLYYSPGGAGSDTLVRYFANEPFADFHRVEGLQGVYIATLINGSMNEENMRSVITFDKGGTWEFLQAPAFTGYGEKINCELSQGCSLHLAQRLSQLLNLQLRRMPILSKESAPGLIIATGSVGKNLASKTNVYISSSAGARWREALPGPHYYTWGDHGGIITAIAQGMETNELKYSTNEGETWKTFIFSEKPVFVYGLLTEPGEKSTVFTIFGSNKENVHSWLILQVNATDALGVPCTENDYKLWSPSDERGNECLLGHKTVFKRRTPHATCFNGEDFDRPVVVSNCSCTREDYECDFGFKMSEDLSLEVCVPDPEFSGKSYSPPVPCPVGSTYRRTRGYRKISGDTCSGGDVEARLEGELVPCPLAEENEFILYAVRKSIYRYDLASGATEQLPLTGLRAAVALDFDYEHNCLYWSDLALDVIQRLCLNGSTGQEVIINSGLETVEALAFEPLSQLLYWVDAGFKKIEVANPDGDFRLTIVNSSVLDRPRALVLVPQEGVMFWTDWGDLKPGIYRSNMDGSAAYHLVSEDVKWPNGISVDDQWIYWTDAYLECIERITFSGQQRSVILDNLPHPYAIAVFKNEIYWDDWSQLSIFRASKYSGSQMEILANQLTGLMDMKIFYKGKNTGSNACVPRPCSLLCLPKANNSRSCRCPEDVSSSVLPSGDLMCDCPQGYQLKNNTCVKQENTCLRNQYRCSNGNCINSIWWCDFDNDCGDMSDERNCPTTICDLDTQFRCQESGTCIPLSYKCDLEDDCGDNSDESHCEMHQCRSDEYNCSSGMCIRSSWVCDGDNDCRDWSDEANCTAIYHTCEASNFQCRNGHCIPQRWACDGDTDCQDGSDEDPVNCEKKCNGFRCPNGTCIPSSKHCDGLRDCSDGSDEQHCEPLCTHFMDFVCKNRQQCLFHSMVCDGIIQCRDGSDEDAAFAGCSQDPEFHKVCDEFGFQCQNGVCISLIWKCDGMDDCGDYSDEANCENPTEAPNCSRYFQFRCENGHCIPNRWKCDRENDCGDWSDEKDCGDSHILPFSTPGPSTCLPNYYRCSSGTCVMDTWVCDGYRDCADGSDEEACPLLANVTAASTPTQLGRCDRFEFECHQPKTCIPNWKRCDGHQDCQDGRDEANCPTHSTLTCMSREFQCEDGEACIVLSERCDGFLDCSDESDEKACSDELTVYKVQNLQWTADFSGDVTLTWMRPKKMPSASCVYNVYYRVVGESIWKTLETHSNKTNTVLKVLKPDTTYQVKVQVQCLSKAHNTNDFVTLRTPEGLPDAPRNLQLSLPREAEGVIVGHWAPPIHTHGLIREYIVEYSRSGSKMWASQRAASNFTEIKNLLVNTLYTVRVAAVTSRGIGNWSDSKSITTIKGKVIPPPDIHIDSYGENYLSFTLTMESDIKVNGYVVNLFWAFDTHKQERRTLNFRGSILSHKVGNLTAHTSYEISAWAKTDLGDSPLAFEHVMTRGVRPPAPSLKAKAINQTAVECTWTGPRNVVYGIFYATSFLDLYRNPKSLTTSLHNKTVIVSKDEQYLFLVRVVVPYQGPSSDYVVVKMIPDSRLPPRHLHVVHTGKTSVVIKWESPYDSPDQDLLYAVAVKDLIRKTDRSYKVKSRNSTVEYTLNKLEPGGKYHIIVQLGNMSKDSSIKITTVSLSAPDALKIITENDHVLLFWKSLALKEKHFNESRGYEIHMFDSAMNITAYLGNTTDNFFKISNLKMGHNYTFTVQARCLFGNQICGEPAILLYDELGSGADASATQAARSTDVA
# [3] = target: T1, purified rabbit soluble LR11; experiment: sandwich ELISA, immobilized mouse IgG, liquid-phase biotinylated R23
# [4] = target: T2, purified human soluble LR11; experiment: as above
# [5] = target: T1, purified rabbit soluble LR11; experiment: sandwich ELISA, immobilized mouse IgG, liquid-phase biotinylated M5
# [6] = target: T2, purified human soluble LR11; experiment: as above
# [7] = target: T1, purified rabbit soluble LR11; experiment: sandwich ELISA, immobilized mouse IgG, liquid-phase biotinylated R14
# [8] = target: T2, purified human soluble LR11; experiment: as above
# [9] = target: T1, purified rabbit soluble LR11; experiment: sandwich ELISA, immobilized mouse IgG, liquid-phase biotinylated mouse IgG
# [10] = target: T2, purified human soluble LR11; experiment: as above
# [11] = target: T1, purified rabbit soluble LR11; experiment: sandwich ELISA, immobilized mouse IgG, liquid-phase biotinylated A2-2-3
# [12] = target: T2, purified human soluble LR11; experiment: as above
# [13] = target: T1, purified rabbit soluble LR11; experiment: affinity capture from serum on RAP/GST bound to Glutathione Sepharose
# [14] = target: T2, purified human soluble LR11; experiment: as above
# T1 sequence (Q95209 82-2136 limits assumed): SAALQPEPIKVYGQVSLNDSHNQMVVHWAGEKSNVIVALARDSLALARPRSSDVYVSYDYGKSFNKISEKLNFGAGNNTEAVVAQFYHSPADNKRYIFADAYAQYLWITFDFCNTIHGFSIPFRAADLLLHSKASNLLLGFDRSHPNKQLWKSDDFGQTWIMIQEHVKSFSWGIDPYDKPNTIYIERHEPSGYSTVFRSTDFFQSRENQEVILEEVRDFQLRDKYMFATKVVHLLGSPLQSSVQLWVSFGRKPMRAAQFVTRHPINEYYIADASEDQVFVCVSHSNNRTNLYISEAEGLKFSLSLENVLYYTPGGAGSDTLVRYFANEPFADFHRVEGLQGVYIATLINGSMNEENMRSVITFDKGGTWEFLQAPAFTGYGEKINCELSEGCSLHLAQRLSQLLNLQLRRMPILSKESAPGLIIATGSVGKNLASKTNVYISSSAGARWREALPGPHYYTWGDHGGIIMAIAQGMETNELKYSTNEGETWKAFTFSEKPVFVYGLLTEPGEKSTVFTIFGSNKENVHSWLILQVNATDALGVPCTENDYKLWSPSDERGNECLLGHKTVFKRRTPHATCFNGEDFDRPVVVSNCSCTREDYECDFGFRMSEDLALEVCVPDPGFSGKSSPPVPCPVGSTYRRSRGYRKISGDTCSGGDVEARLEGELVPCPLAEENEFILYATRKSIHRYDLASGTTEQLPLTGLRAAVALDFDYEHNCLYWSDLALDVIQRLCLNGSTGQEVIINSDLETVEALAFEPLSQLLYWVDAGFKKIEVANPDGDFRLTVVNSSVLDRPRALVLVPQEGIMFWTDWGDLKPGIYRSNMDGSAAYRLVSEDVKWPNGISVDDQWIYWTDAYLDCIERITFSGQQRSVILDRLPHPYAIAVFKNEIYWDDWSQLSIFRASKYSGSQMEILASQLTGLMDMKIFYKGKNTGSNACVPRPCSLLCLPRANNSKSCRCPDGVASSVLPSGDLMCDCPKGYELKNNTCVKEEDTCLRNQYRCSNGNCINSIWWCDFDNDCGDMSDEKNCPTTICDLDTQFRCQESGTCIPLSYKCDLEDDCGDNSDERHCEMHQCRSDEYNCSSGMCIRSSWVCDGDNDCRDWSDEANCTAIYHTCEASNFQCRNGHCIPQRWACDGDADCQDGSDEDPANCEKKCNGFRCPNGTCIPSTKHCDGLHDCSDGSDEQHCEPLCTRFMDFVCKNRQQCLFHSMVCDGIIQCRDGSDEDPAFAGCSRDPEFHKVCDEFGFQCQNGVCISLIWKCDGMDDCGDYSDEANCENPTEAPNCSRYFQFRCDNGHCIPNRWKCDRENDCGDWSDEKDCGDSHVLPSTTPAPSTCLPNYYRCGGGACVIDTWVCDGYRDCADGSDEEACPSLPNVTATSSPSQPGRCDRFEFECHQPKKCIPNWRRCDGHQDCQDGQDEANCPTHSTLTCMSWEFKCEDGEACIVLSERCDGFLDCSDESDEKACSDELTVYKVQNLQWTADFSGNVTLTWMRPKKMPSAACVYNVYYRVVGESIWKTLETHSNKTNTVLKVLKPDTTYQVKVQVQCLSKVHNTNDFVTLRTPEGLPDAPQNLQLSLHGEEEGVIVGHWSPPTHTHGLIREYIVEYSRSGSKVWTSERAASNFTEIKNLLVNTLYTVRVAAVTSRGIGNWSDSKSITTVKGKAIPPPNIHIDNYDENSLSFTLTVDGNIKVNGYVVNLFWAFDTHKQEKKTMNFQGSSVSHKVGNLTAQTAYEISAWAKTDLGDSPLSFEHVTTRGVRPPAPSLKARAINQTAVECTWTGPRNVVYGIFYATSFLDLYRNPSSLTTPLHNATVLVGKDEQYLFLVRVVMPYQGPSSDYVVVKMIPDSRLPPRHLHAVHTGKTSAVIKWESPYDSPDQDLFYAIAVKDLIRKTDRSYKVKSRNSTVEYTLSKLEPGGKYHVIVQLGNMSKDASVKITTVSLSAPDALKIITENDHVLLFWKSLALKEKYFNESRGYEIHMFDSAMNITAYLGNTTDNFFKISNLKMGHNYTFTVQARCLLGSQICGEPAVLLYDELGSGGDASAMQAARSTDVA
Absorbance (492 nm) (Absorbance (492 nm)) [1],Absorbance (492 nm) (Absorbance (492 nm)) [2],Absorbance (492 nm) (Absorbance (492 nm)) [3],Absorbance (492 nm) (Absorbance (492 nm)) [4],Absorbance (492 nm) (Absorbance (492 nm)) [5],Absorbance (492 nm) (Absorbance (492 nm)) [6],Absorbance (492 nm) (Absorbance (492 nm)) [7],Absorbance (492 nm) (Absorbance (492 nm)) [8],Absorbance (492 nm) (Absorbance (492 nm)) [9],Absorbance (492 nm) (Absorbance (492 nm)) [10],Absorbance (492 nm) (Absorbance (492 nm)) [11],Absorbance (492 nm) (Absorbance (492 nm)) [12],binding result [13],binding result [14],Molecule
-0.017,0.024,-0.026,-0.02,-0.017,0.007,-0.019,-0.017,0.043,-0.003,-0.017,0.015,,,mouse IgG (negative control) (antibody)
,,,,,,,,,,,,binds,binds,"RAP/GST fusion protein (other, human, UniProt P30533 35-357, looked up, Expressed in E. coli DH5alpha and adsorbed on Glutathione Sepharose 4 FF; also called RAP-Sepharose resin; RAP (receptor associated protein); not shown: GST encoded by vector pGEX2T (GE Healthcare Bio Science)) YSREKNQPKPSPKRESGEEFRMEKLNQLWEKAQRLHLPPVRLAELHADLKIQERDELAWKKLKLDGLDEDGEKEARLIRNLNVILAKYGLDGKKDARQVTSNSLSGTQEDGLDDPRLEKLWHKAKTSGKFSGEELDKLWREFLHHKEKVHEYNVLLETLSRTEEIHENVISPSDLSDIKGSVLHSRHTELKEKLRSINQGLDRLRRVSHQGYSTEAEFEEPRVIDLWDLAQSANLTDKELEAFREELKHFEAKIEKHNHYQKQLEIAHEKLRHAESVGDGERVSRSREKHALLEGRTKELGYTVKKHLQDLSGRISRARHNEL"
